Data: patent US20120095193A1 (published 2012)
Positions count from the first letter of the chain named.

Tests used:
Human MMP3 = Human MMP3 (human, UniProt P08254 18-477, limits assumed); assay: celTRF and Octet QK cross-reactivity
Human ADAMTS13 = biological target: T1, Human ADAMTS13 (human, UniProt Q76LX8 75-685, limits assumed); assay: celTRF and Octet QK cross-reactivity
T1 sequence (looked up): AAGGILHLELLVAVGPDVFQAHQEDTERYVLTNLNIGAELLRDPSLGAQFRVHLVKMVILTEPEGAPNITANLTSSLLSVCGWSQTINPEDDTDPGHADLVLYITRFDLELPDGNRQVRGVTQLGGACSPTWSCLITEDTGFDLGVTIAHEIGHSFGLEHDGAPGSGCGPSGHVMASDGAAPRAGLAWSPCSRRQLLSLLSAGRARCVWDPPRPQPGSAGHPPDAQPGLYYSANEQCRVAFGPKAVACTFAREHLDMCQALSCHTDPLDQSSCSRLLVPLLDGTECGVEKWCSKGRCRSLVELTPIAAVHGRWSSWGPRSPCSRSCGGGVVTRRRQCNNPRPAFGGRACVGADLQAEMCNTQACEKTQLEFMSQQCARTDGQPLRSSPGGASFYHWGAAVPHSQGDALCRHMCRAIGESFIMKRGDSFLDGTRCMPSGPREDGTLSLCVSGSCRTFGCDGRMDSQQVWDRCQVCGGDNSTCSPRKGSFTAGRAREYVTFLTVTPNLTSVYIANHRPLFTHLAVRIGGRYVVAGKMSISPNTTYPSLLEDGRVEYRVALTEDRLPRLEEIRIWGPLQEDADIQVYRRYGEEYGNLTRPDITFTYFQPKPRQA

Human MMP13 = Human MMP13 (human, UniProt P45452 20-471, limits assumed); assay: celTRF and Octet QK cross-reactivity
Human ADAMTS1 = biological target: T2, Human ADAMTS1 (human, UniProt Q9UHI8 253-967, limits assumed); assay: celTRF and Octet QK cross-reactivity
T2 sequence (looked up): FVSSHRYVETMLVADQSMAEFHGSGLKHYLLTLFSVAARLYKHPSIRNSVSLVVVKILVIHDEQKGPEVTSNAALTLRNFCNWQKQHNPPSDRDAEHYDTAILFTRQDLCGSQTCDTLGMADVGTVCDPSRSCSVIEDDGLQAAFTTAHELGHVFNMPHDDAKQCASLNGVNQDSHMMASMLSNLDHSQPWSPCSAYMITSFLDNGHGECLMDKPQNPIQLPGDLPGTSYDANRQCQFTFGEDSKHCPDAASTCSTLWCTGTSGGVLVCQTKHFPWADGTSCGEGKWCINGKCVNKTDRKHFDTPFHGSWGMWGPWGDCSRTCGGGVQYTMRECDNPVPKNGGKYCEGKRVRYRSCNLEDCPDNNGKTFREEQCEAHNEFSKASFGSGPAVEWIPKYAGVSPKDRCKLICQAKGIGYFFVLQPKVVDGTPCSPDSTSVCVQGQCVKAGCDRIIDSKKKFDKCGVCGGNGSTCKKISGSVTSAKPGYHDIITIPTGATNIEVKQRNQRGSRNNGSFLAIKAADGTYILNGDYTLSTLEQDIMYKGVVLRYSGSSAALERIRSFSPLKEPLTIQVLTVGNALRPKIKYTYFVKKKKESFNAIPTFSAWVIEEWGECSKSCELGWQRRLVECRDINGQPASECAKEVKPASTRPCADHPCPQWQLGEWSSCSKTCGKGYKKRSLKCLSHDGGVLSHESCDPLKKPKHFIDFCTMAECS

Human ADAMTS4 = biological target: T3, Human ADAMTS4 (human, UniProt O75173 213-685, limits assumed); assay: celTRF and Octet QK cross-reactivity
T3 construct: also called aggrecanase-1
T3 sequence: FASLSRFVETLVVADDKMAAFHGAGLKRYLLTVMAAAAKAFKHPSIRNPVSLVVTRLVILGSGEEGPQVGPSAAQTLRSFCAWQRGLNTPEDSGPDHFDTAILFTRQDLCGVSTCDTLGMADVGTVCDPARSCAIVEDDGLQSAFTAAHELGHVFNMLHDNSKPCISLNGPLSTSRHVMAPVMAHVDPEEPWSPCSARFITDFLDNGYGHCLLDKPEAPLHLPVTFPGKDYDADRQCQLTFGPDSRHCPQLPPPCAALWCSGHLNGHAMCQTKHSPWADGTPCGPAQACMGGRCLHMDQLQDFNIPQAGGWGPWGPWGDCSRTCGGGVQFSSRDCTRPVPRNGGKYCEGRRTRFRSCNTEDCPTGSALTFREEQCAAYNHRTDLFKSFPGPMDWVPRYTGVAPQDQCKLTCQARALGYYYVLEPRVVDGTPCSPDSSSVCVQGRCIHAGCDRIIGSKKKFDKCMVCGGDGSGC

Human MMP1 = biological target: T4, Human MMP1 (human, UniProt P03956 20-469, limits assumed); assay: celTRF and Octet QK cross-reactivity
T4 sequence (looked up): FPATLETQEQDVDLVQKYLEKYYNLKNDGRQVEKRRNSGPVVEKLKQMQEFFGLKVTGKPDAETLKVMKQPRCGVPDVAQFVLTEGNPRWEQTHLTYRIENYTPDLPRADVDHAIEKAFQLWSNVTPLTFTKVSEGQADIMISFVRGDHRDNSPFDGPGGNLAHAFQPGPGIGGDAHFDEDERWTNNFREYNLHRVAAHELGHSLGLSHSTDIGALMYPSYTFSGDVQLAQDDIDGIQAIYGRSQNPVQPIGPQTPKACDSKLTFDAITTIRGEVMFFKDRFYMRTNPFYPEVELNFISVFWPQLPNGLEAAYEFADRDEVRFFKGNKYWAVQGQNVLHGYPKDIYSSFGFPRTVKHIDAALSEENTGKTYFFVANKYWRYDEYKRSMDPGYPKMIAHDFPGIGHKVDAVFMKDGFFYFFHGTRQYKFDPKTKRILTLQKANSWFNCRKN

Human MMP9 = Human MMP9 (human, UniProt P14780 20-707, limits assumed); assay: celTRF and Octet QK cross-reactivity
Human MMP9, sequence (P14780 20-707 limits assumed): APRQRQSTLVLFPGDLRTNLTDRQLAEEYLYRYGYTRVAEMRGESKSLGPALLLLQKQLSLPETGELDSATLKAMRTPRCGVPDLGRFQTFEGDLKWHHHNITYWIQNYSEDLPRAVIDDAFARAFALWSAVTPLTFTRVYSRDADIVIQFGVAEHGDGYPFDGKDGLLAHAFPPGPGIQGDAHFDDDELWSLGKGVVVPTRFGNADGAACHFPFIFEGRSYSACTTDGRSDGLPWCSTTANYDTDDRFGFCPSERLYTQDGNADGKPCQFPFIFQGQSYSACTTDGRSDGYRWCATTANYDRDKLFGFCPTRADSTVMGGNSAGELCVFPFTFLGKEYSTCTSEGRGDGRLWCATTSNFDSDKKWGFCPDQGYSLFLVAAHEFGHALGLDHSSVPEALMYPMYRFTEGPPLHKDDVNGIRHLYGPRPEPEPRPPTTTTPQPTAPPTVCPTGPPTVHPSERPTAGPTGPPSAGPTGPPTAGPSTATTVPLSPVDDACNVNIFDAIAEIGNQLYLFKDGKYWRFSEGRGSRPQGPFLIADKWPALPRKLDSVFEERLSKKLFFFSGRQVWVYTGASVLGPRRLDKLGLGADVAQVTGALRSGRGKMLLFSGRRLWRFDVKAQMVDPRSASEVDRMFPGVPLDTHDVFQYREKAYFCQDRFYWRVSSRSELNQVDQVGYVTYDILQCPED

human ADAMTS5 [1] = biological target: T5, human ADAMTS5 (human, UniProt Q9UNA0 262-622, limits assumed); assay: Octet QK, purified mAb
T5 construct: Octet and ELISA used 'recombinant human ADAMTS5'; also called recombinant human ADAMTS5; ADAMTS5 (R&D Systems 2198-AD)
T5 sequence: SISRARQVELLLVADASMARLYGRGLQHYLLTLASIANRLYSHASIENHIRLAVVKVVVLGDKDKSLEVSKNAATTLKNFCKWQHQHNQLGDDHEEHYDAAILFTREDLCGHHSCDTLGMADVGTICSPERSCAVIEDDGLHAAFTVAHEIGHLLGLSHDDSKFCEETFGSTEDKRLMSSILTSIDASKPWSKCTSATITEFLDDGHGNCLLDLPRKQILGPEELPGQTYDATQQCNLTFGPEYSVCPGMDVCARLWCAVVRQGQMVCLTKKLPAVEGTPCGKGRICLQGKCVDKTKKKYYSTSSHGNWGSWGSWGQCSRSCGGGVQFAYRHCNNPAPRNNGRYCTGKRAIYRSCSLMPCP

human ADAMTS5 [2] = biological target: T5, human ADAMTS5; assay: Biacore, mAb down, no avidity
human ADAMTS5 [3] = biological target: T5, human ADAMTS5; assay: cell-based or functional assay
human ADAMTS5 [4] = biological target: T5, human ADAMTS5; assay: Octet QK, antigen down, incl avidity
human ADAMTS5 [5] = biological target: T5, human ADAMTS5; assay: Octet QK, purified murine mAb
human ADAMTS5 [6] = biological target: T5, human ADAMTS5; assay: ELISA on coated recombinant human ADAMTS5 (0.2 ug/ml), antibody in culture supernatant, anti human kappa peroxidase, OD 490 nm
Procedure: A binding ELISA was carried out to test the binding of the expressed antibodies in cell culture supernatant to recombinant ADAMTS5. ELISA plates were coated with recombinant human ADAMTS5 at 0.2 μg/ml and blocked with blocking solution (4% BSA in Tris buffered saline). Various dilutions of the tissue culture supernatants were added and the plate was incubated for 1 hour at room temperature before washing in TBST. Binding was detected by the addition of a peroxidase labelled anti human kappa light chain antibody (Sigma A7164) at a dilution of 1/1000 in blocking solution. The plate was incubated for 1 hour at room temp before washing in TBST. The plate was developed by addition of OPD substrate (Sigma P9187) and colour development stopped by addition of 2M H₂SO₄. Absorbance was measured at 490 nm with a plate reader and the mean absorbance plotted against concentration.

human ADAMTS5 [7] = biological target: T5, human ADAMTS5; assay: Biacore, purified mAb captured on anti-human IgG, ADAMTS5 (R&D 2198-AD) at 64 nM, 1:1 fit
Procedure: (§1) Anti-human IgG (Biacore™, BR-1008-39) was immobilized on a CM5 chip by primary amine coupling. This surface was then used to capture the humanized antibodies, ADAMTS5 (R&D Systems 2198-AD) was then passed over the captured antibody at a single concentration of 64 nM, regeneration was carried out using 100 mM phosphoric acid followed by 3M MgCl₂. The binding curves were double referenced with buffer injection (i.e. 0 nM) and the data was fitted to the T100 analysis software using the 1:1 model. The run was carried out at 25° C., using HBS-EP as the running buffer. All antibodies were captured from tissue culture supernatants unless specified.

human ADAMTS5 [8] = biological target: T5, human ADAMTS5; assay: Biacore, mAb from culture supernatant captured on anti-human IgG, ADAMTS5 (R&D 2198-AD) at 64 nM, 1:1 fit
Procedure: as §1

Human MMP3, sequence (P08254 18-477 limits assumed): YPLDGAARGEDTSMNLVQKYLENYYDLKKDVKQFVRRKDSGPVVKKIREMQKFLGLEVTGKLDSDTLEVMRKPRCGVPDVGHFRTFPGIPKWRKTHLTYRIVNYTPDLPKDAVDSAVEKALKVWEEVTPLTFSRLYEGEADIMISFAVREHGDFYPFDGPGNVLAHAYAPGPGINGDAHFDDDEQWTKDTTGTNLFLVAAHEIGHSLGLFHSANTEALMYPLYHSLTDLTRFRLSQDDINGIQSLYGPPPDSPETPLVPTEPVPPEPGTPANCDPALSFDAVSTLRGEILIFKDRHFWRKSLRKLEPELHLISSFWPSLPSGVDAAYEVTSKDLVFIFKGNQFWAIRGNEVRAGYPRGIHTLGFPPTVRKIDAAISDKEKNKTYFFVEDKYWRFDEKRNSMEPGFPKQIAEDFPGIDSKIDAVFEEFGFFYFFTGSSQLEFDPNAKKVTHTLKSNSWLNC

B1: 12F4.1H7 (antibody, IgG2, V domains shown)
VH: EVKLEESGGGLVQPGGSMKLSCTASGFTFSDAWMDWVRQSPEKGLEWVAEIRHKANDHAIFYDESVKGRFTISRDDSKNIVYLQMNSLRPEDTGIYYCTSPFAYWGQGTLVTVSA
VL: DIVMTQSQKFMSVTVGDRVSITCKASQSVGTTIVWYQQKPGQSPKLLIYSASNRHTGVPDRFTGSGSGTDFILTINNVQSEDLADYFCQQYTSYPFTFGSGTKLEIKR
notes: also called Murine 12F4.1H7
What does the source list for B1?
binding result (Human MMP3): no binding; binding result (Human ADAMTS13): no binding; binding result (Human MMP13): no binding; binding result (Human ADAMTS1): no binding; binding result (Human ADAMTS4): no binding; binding result (Human MMP1): no binding; binding result (Human MMP9): no binding; Kd (human ADAMTS5 [1]): 0.0685 nM; Kd (human ADAMTS5 [2]): 0.067 nM; Aggrecan Substrate Cleavage Neutralization IC50 (human ADAMTS5 [3]): 0.06 nM; Kd (human ADAMTS5 [4]): 0.0356 nM; Kd (human ADAMTS5 [5]): 0.436 nM

B2: 7B4.1E11 (antibody, IgG1, V domains shown)
VH: EVKLEESGGGLVQPGGSMKLSCAASGFTSSDAWMDWVRQSPEKGLEWVAEIRNKANNHARHYAESVKGRFTISRDDSKSSVYLQMNSLRAEDSGIYYCTRTYYYGSSYGYCDVWGTGTTVTVSS
VL: DIQMTQSPASLSASVGETVTITCRTSENIYSYLAWYQQKQGKSPQLLVYNAKTLAEGVPSRFSGSGSGTQFSLKINSLQPEDFGSYSCQHHYGTPWTFGGGTKLEIKR
notes: also called Murine 7B4.1E11
Does B2 bind (Human MMP3)?
Result: no binding

Does B2 bind (Human ADAMTS13)?
Result: no binding

Does B2 bind (Human MMP13)?
Result: no binding

Does B2 bind (Human ADAMTS1)?
Result: no binding

Does B2 bind (Human ADAMTS4)?
Result: no binding

Does B2 bind (Human MMP1)?
Result: no binding

Does B2 bind (Human MMP9)?
Result: no binding

And the Kd (human ADAMTS5 [1])?
The Kd was 0.358 nM.

And the Kd (human ADAMTS5 [2])?
Its Kd is 0.483 nM.

And the “Aggrecan Substrate Cleavage Neutralization IC50” value (human ADAMTS5 [3])?
The value was 0.08 nM.

What about the Kd (human ADAMTS5 [4]) of the same binder?
The Kd was 0.28 nM.

What about the Kd (human ADAMTS5 [5]) of the same binder?
Its Kd is 0.899 nM.

B3: BPC1655 (antibody, human IgG1, kappa, V domains shown)
VH: EVQLLESGGGLVQPGGSLRLSCAASGFTFSDAWMDWVRQAPGKGLEWVSEIRHKANDHAIFYDESVKGRFTISRDNSKNTLYLQMNSLRAEDTAVYYCAKPFAYWGQGTLVTVSS
VL: DIQMTQSPSSLSASVGDRVTITCKASQSVGTTIVWYQQKPGKAPKLLIYSASNRHTGVPSRFSGSGSGTDFTLTISSLQPEDFATYYCQQYTSYPFTFGQGTKLEIKR
notes: Humanized, human gamma 1 / kappa; also called 12F4 H0L0
Does B3 bind (human ADAMTS5 [6])?
Result: no binding (tested: about 2.5 ug/ml)

B4: BPC1623 (antibody, human IgG1, kappa, V domains shown)
VH: B1 VH with A115S
VL: B1 VL
notes: Chimeric: murine variable domains on human gamma 1 and kappa constant regions; also called 12F4 Chimera; Chimeric 12F4.1H7
What does the source list for B4?
Kd (human ADAMTS5 [7]): 0.0727 nM; koff (human ADAMTS5 [7]): 4.7e-05 s⁻¹; kon (human ADAMTS5 [7]): 646000 M⁻¹ s⁻¹; Kd (human ADAMTS5 [1]): 0.0799 nM; Kd (human ADAMTS5 [8]): 0.0774 nM; koff (human ADAMTS5 [8]): 4.82e-05 s⁻¹; kon (human ADAMTS5 [8]): 623000 M⁻¹ s⁻¹; Kd (human ADAMTS5 [2]): 0.051 nM; Kd (human ADAMTS5 [4]): 0.0431 nM

B5: BPC1622 (antibody, human IgG1, kappa, V domains shown)
VH: B2 VH with T119L
VL: B2 VL
notes: Chimeric: murine variable domains on human gamma 1 and kappa constant regions; also called 7B4 Chimera; Chimeric 7B4.1E11
Which results are given for B5?
Kd (human ADAMTS5 [7]): 1.21 nM; koff (human ADAMTS5 [7]): 0.00106 s⁻¹; kon (human ADAMTS5 [7]): 872000 M⁻¹ s⁻¹; Kd (human ADAMTS5 [1]): 0.345 nM; Kd (human ADAMTS5 [8]): 1.12 nM; koff (human ADAMTS5 [8]): 0.0013 s⁻¹; kon (human ADAMTS5 [8]): 1.16e+06 M⁻¹ s⁻¹; Kd (human ADAMTS5 [2]): 0.473 nM; Kd (human ADAMTS5 [4]): 0.26 nM
